Tests used:
[1] = target: cell-surface mesothelin on mesothelin-expressing cells (human) (UniProt Q13421); assay: flow cytometry on Mz-Cha-1 cells
[2] = target: cell-surface mesothelin on mesothelin-expressing cells (human) (UniProt Q13421); assay: cell-based or functional assay
[3] = target: cell-surface mesothelin on mesothelin-expressing cells (human) (UniProt Q13421); assay: flow cytometry on NCI-H226 cells
[4] = target: cell-surface mesothelin on mesothelin-expressing cells (human) (UniProt Q13421); assay: flow cytometry on H9 cells
[5] = target: cell-surface mesothelin on mesothelin-expressing cells (human) (UniProt Q13421); assay: flow cytometry on L55 cells
[6] = target: cell-surface mesothelin on mesothelin-expressing cells (human) (UniProt Q13421); assay: flow cytometry on KMBC cells
[7] = target: cell-surface mesothelin on mesothelin-expressing cells (human) (UniProt Q13421); assay: flow cytometry on OVCAR8 cells
[8] = target: cell-surface mesothelin on mesothelin-expressing cells (human) (UniProt Q13421); assay: flow cytometry on M30 cells
[9] = target: cell-surface mesothelin on mesothelin-expressing cells (human) (UniProt Q13421); assay: flow cytometry on YOU cells
[10] = target: cell-surface mesothelin on mesothelin-expressing cells (human) (UniProt Q13421); assay: flow cytometry on EKVX cells
[11] = target: cell-surface mesothelin on mesothelin-expressing cells (human) (UniProt Q13421); assay: flow cytometry on NCI-ADR-RES cells
[12] = target: cell-surface mesothelin on mesothelin-expressing cells (human) (UniProt Q13421); assay: flow cytometry on KMCH cells
[13] = target: cell-surface mesothelin on mesothelin-expressing cells (human) (UniProt Q13421); assay: flow cytometry on H9 cells; remark: listed apart in the source
[14] = target: cell-surface mesothelin on mesothelin-expressing cells (human) (UniProt Q13421); assay: flow cytometry on NCI-H322M cells
[15] = target: human transferrin receptor (human) (UniProt P02786); assay: cell-based or functional assay
[16] = target: human transferrin receptor (human) (UniProt P02786); assay: flow cytometry on L55 cells
[17] = target: human transferrin receptor (human) (UniProt P02786); assay: flow cytometry on YOU cells
[18] = target: human transferrin receptor (human) (UniProt P02786); assay: flow cytometry on EKVX cells
[19] = target: human transferrin receptor (human) (UniProt P02786); assay: flow cytometry on NCI-H322M cells
[20] = target: recombinant mesothelin protein (full-length mesothelin) (human) (UniProt Q13421); assay: ELISA, mAb titrated on mesothelin (1 ug/ml), fit with Prism
[21] = target: mesothelin Region I fragment (residues 296-390) (human, UniProt Q13421 296-390); assay: ELISA on mesothelin fragments
[22] = target: mesothelin-Fc fusion protein (human) (UniProt Q13421); assay: sandwich ELISA: YP223 capture, mesothelin-Fc titrated, biotinylated YP218 detection

human transferrin receptor (human), sequence (P02786 whole entry): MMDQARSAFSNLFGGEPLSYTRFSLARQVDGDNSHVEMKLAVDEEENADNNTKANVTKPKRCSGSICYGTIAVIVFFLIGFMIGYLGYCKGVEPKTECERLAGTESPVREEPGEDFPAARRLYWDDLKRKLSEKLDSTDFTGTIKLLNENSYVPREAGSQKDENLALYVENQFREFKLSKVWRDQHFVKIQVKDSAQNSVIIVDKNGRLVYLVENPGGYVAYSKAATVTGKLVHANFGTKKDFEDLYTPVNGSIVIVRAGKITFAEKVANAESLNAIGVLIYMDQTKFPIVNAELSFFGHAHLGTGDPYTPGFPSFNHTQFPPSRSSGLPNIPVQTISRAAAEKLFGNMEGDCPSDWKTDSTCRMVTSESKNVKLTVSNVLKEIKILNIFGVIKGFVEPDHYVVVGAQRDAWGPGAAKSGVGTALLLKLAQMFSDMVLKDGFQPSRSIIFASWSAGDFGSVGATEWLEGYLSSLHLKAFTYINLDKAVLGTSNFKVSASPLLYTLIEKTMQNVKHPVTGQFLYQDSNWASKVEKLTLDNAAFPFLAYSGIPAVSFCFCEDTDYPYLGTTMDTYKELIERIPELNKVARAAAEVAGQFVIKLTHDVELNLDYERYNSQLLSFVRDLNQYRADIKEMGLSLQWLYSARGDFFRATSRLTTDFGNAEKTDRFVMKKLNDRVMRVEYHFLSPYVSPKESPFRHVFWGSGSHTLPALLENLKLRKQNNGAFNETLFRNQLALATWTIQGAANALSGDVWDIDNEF
mesothelin Region I fragment (residues 296-390), sequence (Q13421 296-390): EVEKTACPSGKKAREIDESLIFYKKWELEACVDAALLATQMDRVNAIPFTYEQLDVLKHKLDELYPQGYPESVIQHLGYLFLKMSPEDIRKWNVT

Molecule SS1P immunotoxin has a Kd [1] of 1.3 nM, an IC50 (ng ml^-1), cytotoxicity on EKVX cells [2] of 55.4 ng/mL and an IC50 (ng ml^-1), cytotoxicity on H9 cells [2] of 0.076 ng/mL. The IC50 (ng ml^-1), cytotoxicity on H226-GL cells [2] was 1.99 ng/mL, the IC50 (ng ml^-1), cytotoxicity on KMBC cells [2] was 3.39 ng/mL and the IC50 (ng ml^-1), cytotoxicity on KMCH cells [2] was 7.23 ng/mL. It also gave an IC50 (ng ml^-1), cytotoxicity on L55 cells [2] of 5.89 ng/mL, an IC50 (ng ml^-1), cytotoxicity on M30 cells [2] of 7.13 ng/mL and an IC50 (ng ml^-1), cytotoxicity on Mz-Cha-1 cells [2] of 21.6 ng/mL. The IC50 (ng ml^-1), cytotoxicity on NCI-ADR-RES cells [2] was 1.2 ng/mL, the IC50 (ng ml^-1), cytotoxicity on NCI-H226 cells [2] was 5.29 ng/mL and the IC50 (ng ml^-1), cytotoxicity on NCI-H322M cells [2] was 4.02 ng/mL. The IC50 (ng ml^-1), cytotoxicity on OVCAR8 cells [2] was 1.82 ng/mL, the IC50 (ng ml^-1), cytotoxicity on YOU cells [2] was 13 ng/mL and the IC50 (ng/ml), cytotoxicity on RH16 mesothelioma patient primary cells [2] was 10.4 ng/mL. It also gave an IC50 (ng/ml), cytotoxicity on RH18 mesothelioma patient primary cells [2] of over 100 ng/mL, an IC50 (ng/ml), cytotoxicity on RH19 mesothelioma patient primary cells [2] of 0.63 ng/mL and an IC50 (ng/ml), cytotoxicity on RH21 mesothelioma patient primary cells [2] of 0.73 ng/mL. The Kd [3] was 1.49 nM, the Kd [4] was 4.82 nM and the Kd [5] was 1.04 nM. The Kd [6] was 2.15 nM, the Kd [7] was 0.6 nM and the Kd [8] was 0.49 nM. The Kd [9] was 1.48 nM, the Kd [10] was 1.7 nM and the Kd [11] was 1.41 nM. For the same molecule, the Kd [12] was 1.26 nM, the Kd [13] was 1.3 nM and the Kd [14] was 0.44 nM.

In the case of HB21-PE40 immunotoxin, the IC50 (ng ml^-1), cytotoxicity on EKVX cells [15] is reported as 0.21 ng/mL, the IC50 (ng ml^-1), cytotoxicity on H226-GL cells [15] is reported as 0.22 ng/mL and the IC50 (ng ml^-1), cytotoxicity on L55 cells [15] is reported as 0.57 ng/mL. It also gave an IC50 (ng ml^-1), cytotoxicity on M30 cells [15] of 0.51 ng/mL, an IC50 (ng ml^-1), cytotoxicity on NCI-ADR-RES cells [15] of 0.12 ng/mL and an IC50 (ng ml^-1), cytotoxicity on NCI-H322M cells [15] of 0.31 ng/mL. It also gave a Kd [16] of 9.74 nM, a Kd [17] of 24.7 nM and a Kd [18] of 6.28 nM. The Kd [19] was 6.05 nM.

B1: YP218 rabbit monoclonal antibody (antibody, V domains shown)
VH: QQQLEESGGGLVKPEGSLTLTCKASGFDLGFYFYACWVRQAPGKGLEWIACIYTAGSGSTYYASWAKGRFTISKASSTTVTLQMTSLAAADTATYFCARSTANTRSTYYLNLWGPGTLVTVSS
VL: DVVMTQTPASVSEPVGGTVTIKCQASQRISSYLSWYQQKPGQRPKLLIFGASTLASGVPSRFKGSGSGTEYTLTISDLECADAATYYCQSYAYFDSNNWHAFGGGTEVVV
B1 gave a Kd [20] of 0.91 nM.

B2: YP158 rabbit monoclonal antibody (antibody, V domains shown)
VH: QSLEESGGDLVKPGASLTLTCTASGFSFSGDYYMCWVRQAPGKGLEWIACIGGGSNTATYYATWAKGRFTISKTSSTTVTLQMTSLTAADTATYFCARDLGFVDYALELWGPGTLVTVSS
VL: DIVMTQTPASVEVAVGGTVTIKCQASENMYNSLAWYQQKPGQPPKLLIYRASTLESGVPSRFKGSGSGTEYTLTISDLECADAATYYCQCTFYSHNNNYGGAFGGGTEVVV
notes: Rabbit hybridoma mAb (rabbit IgG)
B2: binds [21].

B3: YP223 rabbit monoclonal antibody (antibody, V domains shown)
VH: QEQLEESGGDLVQPEGSLTLTCKASGLDFSSSYWICWVRQAPGKGLEWIGCRHTFTANTWSASWVNGRFTISRSTSLGTVDLKMTSLTAADTATYFCARDESNNDGWDFKLWGPGTLVTVSS
VL: AYDMTQTPASVSAAVGGTVTIKCQASQSISNYLAWYQQKPGQPPKLLIYQASTLAPGVSSRFKGSGSGTEFTLTISGVECADAATYYCQQGYTSSNVENVFGGGTGVVV
Molecule B3 has an EC50 [22] of 0.5 nM and a Kd [20] of 0.65 nM.

B4: YP3 rabbit monoclonal antibody (antibody, V domains shown)
VH: QEQLVESGGGLVQPGASLTLTCTASGIDFSRYYMCWVRQAPGKGLEGIACIYIGGSGSTYYASWAKGRFTISKASSTTVTLQMTSLTAADTATYFCARGTNLNYIFRLWGPGTLVTVSS
VL: DVVMTQTPSPVSAAVGGTVTIKCQASQSINNGLAWYQQKPGQPPRLLIYSASNLESGVPSRFKGSGSGTEFTLTISDLECDDAATYYCQCIWDGNSYVNAFGGGTEVVV
B4 gave a Kd [20] of 0.42 nM.
